Target: biotinylated E2F-1 peptide symmetrically methylated at R111 and R113
Assay: BLI

For “p100-TSN Tudor domain (biolayer interferometry) (from UniProt Q7KZF4 729-787) (domain or fragment)”, the Kd was 12 µM.

— publication PMC4129656
